Results: patent US20060034860A1

Columns and labels:
[1] = target: HIV-1 protease, bait PR_v1 (HIV-1 isolate YU2) (UniProt P35963); assay: cell-based or functional assay
[2] = target: HIV-1 Integrase (IN), bait IN (HIV-1 isolate YU2) (UniProt P35963); assay: cell-based or functional assay
Sequence of HIV-1 Integrase (IN), bait IN (HIV-1 isolate YU2) (P35963 1148-1435 limits assumed): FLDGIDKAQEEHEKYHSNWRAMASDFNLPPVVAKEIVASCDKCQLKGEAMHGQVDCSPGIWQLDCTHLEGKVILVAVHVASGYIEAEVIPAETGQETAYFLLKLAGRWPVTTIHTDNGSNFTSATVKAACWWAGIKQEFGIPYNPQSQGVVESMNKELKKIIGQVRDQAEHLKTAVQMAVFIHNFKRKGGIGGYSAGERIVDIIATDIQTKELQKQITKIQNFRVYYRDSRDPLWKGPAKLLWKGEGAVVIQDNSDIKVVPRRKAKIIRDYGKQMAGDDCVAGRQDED

Sequence of HIV-1 protease, bait PR_v1 (HIV-1 isolate YU2) (P35963 489-587 limits assumed): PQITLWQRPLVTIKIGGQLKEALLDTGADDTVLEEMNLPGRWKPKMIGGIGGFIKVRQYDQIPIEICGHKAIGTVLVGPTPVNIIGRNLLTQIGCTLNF

Substance | inhibition of HIV-1 infection (p24 antigen in supernatant) after siRNA against AIM1, HeLa cells with CD4 and CCR5 [1] [%] | inhibition of HIV replication (p24 antigen in supernatant) after siRNA against LEDGF, HeLa cells with CD4 and CCR5 [2] [%]
Human AIM1 (prey030612), Absent in Melanoma, prey fragments, Q9Y4K1 1-2131 | 30 | 
LEDGF p75 isoform (PSIP2), prey fragments (from UniProt O75475 340-417) |  | 84
